What all share (test): Kd (EC50 corrected by depletion factor)
One data set has as its target T1, IFIT5 (UniProt Q13325).
T1 sequence: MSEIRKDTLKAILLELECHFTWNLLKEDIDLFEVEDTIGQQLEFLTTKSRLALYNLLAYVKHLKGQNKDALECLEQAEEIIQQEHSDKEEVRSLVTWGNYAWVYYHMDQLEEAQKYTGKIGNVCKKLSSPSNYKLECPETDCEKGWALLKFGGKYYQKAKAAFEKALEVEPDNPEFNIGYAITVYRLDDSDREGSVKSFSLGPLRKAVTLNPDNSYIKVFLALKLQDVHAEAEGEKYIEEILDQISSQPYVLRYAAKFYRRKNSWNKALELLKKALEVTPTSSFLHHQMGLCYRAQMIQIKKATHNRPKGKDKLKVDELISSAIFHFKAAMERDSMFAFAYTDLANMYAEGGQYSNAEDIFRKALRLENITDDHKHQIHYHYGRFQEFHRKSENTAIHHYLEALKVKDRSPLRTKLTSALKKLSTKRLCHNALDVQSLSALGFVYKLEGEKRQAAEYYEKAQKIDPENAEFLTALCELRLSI
An outline of the steps:
(§1)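 To obtain EC50, data were fitted with a four-parameter log-logistic model; Kd was then EC50 multiplied by a protein-dependent depletion factor. Beforehand, free RNA oligos (0 nM to 30 μM) were pre-incubated with HEK293-FT lysate (2.5 mg protein/well) for 1 h at 4°C. The lysate then spent 30 min at 4°C with the same 5′-amino-C6 oligos coupled to NHS-Sepharose beads, and bound proteins were quantified by label-free LC-MS/MS, normalised to the control.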

For the next data set, the target named is AGO1 (UniProt Q9UL18). An outline of the steps: as §1
Another data set deals with T2, UPF1 (UniProt Q92900).
T2 sequence: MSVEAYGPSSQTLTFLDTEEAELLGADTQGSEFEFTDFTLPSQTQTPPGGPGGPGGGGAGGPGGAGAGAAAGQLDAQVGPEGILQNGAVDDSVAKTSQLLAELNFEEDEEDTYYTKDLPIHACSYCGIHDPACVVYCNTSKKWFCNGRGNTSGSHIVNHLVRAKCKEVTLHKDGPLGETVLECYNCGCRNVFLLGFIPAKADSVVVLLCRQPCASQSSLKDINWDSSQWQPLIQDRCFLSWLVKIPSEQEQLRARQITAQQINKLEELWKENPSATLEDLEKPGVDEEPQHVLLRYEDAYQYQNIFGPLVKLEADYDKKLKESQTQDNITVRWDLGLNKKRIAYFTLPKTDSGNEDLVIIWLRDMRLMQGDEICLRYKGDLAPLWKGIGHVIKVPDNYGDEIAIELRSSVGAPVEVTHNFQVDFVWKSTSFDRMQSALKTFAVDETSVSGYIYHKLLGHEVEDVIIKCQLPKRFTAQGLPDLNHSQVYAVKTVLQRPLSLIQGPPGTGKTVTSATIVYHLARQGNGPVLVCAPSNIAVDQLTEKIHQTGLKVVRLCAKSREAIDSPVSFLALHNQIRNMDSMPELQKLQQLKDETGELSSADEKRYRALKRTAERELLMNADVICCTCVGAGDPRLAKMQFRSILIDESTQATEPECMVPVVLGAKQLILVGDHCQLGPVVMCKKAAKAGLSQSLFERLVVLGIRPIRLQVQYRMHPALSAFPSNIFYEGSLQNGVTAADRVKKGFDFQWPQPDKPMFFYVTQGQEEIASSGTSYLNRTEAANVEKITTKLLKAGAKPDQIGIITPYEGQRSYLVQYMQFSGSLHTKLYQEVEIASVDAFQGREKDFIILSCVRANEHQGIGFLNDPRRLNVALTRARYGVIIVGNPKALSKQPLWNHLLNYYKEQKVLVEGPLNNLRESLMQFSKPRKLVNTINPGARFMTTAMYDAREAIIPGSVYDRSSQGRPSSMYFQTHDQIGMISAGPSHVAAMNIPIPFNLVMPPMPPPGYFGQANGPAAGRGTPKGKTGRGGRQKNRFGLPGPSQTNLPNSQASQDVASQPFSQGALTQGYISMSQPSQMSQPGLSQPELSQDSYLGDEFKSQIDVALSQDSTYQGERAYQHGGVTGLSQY
The procedure, abridged:
as §1

The target in a further data set is CSNK2A1 (UniProt P68400). The procedure, abridged: as §1
For a further data set, the target named is MRPL12 (UniProt P52815). The procedure, abridged: as §1
For a further data set, the target named is ICT1 (UniProt Q14197). An outline of the steps:
as §1

In a further data set the target is MRPL21 (UniProt Q7Z2W9). An outline of the steps:
as §1

For a further data set, the target named is MRPL48 (UniProt Q96GC5). An outline of the steps: as §1
Another data set has as its target MRPS31 (UniProt Q92665). An outline of the steps:
as §1

The target of another data set is MRPS9 (UniProt P82933). An outline of the steps: as §1
The target in the next data set is T3, HNRNPA0 (UniProt Q13151).
T3 sequence: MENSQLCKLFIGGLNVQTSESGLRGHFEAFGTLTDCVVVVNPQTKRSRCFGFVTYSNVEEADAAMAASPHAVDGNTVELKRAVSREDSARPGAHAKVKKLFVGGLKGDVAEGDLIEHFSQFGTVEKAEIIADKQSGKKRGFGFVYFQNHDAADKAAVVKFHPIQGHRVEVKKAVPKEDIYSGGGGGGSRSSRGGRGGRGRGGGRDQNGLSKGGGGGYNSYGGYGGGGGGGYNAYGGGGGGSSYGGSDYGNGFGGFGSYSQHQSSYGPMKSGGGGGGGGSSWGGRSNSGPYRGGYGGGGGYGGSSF
The procedure, abridged: as §1

CSNK2A1, sequence (P68400 whole entry, looked up): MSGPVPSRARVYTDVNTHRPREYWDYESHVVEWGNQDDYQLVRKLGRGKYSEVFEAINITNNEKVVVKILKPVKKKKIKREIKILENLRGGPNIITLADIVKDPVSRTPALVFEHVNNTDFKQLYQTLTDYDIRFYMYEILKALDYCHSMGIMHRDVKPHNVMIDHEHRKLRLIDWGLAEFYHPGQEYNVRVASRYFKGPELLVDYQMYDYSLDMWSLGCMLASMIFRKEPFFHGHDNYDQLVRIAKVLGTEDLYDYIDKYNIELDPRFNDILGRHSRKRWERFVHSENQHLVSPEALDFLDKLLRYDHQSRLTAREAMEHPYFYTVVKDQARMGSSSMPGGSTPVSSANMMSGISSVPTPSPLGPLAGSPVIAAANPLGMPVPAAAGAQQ

Regarding AAUAAA, the Kd amounted to 363 nM with IFIT5, 78.7 nM with AGO1, 2640 nM in the data set with UPF1 and 78.6 nM with CSNK2A1.
For CUGUCCU, the Kd was 43.7 nM with MRPL12, 48.1 nM with ICT1, 57.2 nM in the data set with MRPL21 and 96.1 nM with MRPL48.
Take UAUUUAU: the Kd in the data set with MRPS31 was 52.4 nM; in the data set with MRPS9, 27.1 nM; with HNRNPA0 it was 3200 nM.

By Kd is commonly meant the concentration at which binding is half-saturated. Lower therefore signals tighter binding.

These data come from the supplement of paper PMC6379048.
